Article PMC4560640

Molecular target: base subcomplex, heterologously expressed in E. coli (S. cerevisiae) (UniProt P38764)

Ub-AMC cleavage activity of Ubp6 with purified base against Ubp6 alone: 300 fold
Substance: Ubp6, wild type (from UniProt P43593 1-499) (enzyme)
